In general, Kd refers to the free concentration of one partner at which half of the binding sites on the other are occupied at equilibrium, for simple one-to-one binding. A lower Kd goes with tighter binding.

This passage reports Kd results from article PMC3089569 (The Journal of Biological Chemistry, 2011).

The test deals with N-terminal histidine-tagged full-length mouse eIF4AI (mouse, UniProt P60843 1-406). Nature of the test: SPR. A general note: Surface plasmon resonance follows binding to a sensor surface in real time, without labels.
Sequence of N-terminal histidine-tagged full-length mouse eIF4AI (P60843 whole entry): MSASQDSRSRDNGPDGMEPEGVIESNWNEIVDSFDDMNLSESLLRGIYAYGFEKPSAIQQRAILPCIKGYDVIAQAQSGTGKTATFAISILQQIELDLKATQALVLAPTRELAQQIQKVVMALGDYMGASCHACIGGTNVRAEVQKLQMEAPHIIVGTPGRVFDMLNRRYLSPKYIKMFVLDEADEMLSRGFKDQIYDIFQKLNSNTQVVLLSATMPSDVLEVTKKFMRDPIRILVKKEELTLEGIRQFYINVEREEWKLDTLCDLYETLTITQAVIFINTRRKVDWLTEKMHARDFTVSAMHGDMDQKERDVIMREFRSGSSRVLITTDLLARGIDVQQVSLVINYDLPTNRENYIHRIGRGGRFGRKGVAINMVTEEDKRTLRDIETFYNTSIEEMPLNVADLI

B1: GST-MA-3M-C fusion protein (tandem MA-3 region of mouse Pdcd4, residues 157-449) (domain or fragment, UniProt Q61823 157-449, looked up)
chain: LPLDETAFEKTLTPIIQEYFEHGDTNEVAEMLRDLNLGEMKSGVPVLAVSLALEGKASHREMTSKLLSDLCGTVMSTNDVEKSFDKLLKDLPELALDTPRAPQLVGQFIARAVGDGILCNTYIDSYKGTVDCVQARAALDKATVLLSMSKGGKRKDSVWGSGGGQQPVNHLVKEIDMLLKEYLLSGDISEAEHCLKELEVPHFHHELVYEAIVMVLESTGESAFKMILDLLKSLWKSSTITIDQMKRGYERIYNEIPDINLDVPHSYSVLERFVEECFQAGIISKQLRDLCPS
On to B1, for which binding was put at a Kd of 167 nM.
